B1: RecA protein fused to a β-galactosidase truncation (ΔαRecA / ΔωRecA) (natural protein)
chain: MAIDENKQKALAAALGQIEKQFGKGSIMRLGEDRSMDVETISTGSLSLDIALGAGGLPMGRIVEIYGPESSGKTTLTLQVIAAAQREGKTCAFIDAEHALDPVYARKLGVDIDNLLCSQPDTGEQALEICDALARSGAVDVIVVDSVAALTPKAEIEGEIGDSHMGLAARMMSQAMRKLAGNLKQSNTLLIFINQIRMKIGVMFGNPETTTGGNALKFYASVRLDIRRIGAVKEGDNVVGSETRVKVVKNKIAAPFKQAEFQILYGEGINFYGELVDLGVKEKLIEKAGAWYSYNGEKIGQGKANATTWLKENPATAKEIEKRVRELLLSNQNATPDFAVDDSEGVAETNEDF
notes: RecA, S. enterica sv; Typhimurium; the recA gene was PCR-amplified and cloned (SphI/BamHI) into both pB2HΔα and pB2HΔω; One molecule for both fusions (Δα and Δω), since each protein stood in both positions of the two-hybrid system; also called Δα-recA fusion; Δω-recA fusion; source: two-hybrid fusion, co-expressed in E. coli MC1061 (pB2HΔα / pB2HΔω derivatives, 20 nM IPTG)
B2: CheW coupling protein fused to a β-galactosidase truncation (ΔαCheW / ΔωCheW) (natural protein)
chain: MTGMSNVSKLAGEPSGQEFLVFTLGNEEYGIDILKVQEIRGYDQVTRIANTPAFIKGVTNLRGVIVPIVDLRVKFCEGDVEYDDNTVVIVLNLGQRVVGIVVDGVSDVLSLTAEQIRPAPEFAVTLSTEYLTGLGALGERMLILVNIEKLLNSEEMALLDIAASHVA
notes: CheW coupling protein, S. enterica sv; Typhimurium; the cheW gene was PCR-amplified and cloned (SphI/BamHI) into both pB2HΔα and pB2HΔω; One molecule for both fusions (Δα and Δω), since each protein stood in both positions of the two-hybrid system; also called Δα-cheW fusion; Δω-cheW fusion; source: two-hybrid fusion, co-expressed in E. coli MC1061 (pB2HΔα / pB2HΔω derivatives, 20 nM IPTG)

Tests used:
[1] = target: B2; assay: two-hybrid; β-galactosidase Δα/Δω complementation (pB2HΔα/pB2HΔω) in E. coli MC1061; 37°C, samples 5 h after 20 nM IPTG; activity relative to the non-interaction control strain expressing ΔαAmyA and ΔωDnaE; details: partners not purified
[2] = target: B1; assay: as above; details: partners not purified

B1
relative β-galactosidase expression [1]: > 7 relative to the non-interaction control strain

B2
relative β-galactosidase expression [2]: > 7 relative to the non-interaction control strain
